Eight molecules from patent US20170267750A1 (CELLDEX THERAPEUTICS, published 2017) can be followed below.

The target of test [1] is T1, TIM-1 antigen, soluble extracellular domain of TIM-1 (CG57008-02) with a V5-HIS tag (human, UniProt Q96D42 21-288).
T1 construct: also called TIM-1 immunogen; TIM-1 protein
T1 sequence: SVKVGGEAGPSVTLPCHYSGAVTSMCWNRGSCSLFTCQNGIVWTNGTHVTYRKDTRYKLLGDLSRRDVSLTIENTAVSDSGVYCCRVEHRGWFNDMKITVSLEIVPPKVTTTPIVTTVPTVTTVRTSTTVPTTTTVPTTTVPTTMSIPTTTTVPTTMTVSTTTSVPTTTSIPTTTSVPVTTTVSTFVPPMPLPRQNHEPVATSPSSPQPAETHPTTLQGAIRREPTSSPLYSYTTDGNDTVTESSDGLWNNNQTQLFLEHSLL
The test can be described thus: BIAcore 2000, 25 C, mAb captured on goat anti-human surface, TIM-1 antigen injected at 292 nM. On the technique in general: Surface plasmon resonance follows binding to a sensor surface in real time, without labels.

Test [2] deals with T2, TIM-1 (T cell, immunoglobulin domain and mucin domain 1), cell membrane-bound (human, UniProt Q96D42 21-364).
T2 construct: whole, on cells; also called TIM-1 antigen expressed on ACHN, CAKI-2, CAKI-1 cells; TIM-1 on polarized human CD4+ Th1/Th2 cells
T2 sequence (looked up): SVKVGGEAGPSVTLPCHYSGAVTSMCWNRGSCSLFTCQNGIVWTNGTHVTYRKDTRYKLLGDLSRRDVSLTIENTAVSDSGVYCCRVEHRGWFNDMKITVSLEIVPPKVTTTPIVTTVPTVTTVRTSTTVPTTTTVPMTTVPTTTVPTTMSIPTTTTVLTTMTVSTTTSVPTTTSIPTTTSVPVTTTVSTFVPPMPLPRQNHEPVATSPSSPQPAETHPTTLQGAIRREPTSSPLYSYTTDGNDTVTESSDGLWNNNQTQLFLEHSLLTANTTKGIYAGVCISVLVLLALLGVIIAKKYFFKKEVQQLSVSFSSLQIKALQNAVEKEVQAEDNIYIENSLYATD
The test can be described thus: FACS on CAKI-2 cells, normalised to isotype control pK16.

Test [3] concerns the target T2, TIM-1 (T cell, immunoglobulin domain …). Put plainly: FACS on ACHN cells, normalised to isotype control pK16.
Test [4] deals with T3, alanine scan peptide PMPLARQNHE
T3 construct: Synthetic; third P replaced by A
T3 peptide: PMPLARQNHE
The test can be described thus: ELISA on coated synthetic peptide (alanine scan). A general note: ELISA stands for enzyme-linked immunosorbent assay.

Test [5] deals with T4, alanine scan peptide PMPLPRQAHE
T4 construct: Synthetic; N replaced by A
T4 peptide: PMPLPRQAHE
Put plainly: ELISA on coated synthetic peptide (alanine scan).

B1: anti-TIM-1 monoclonal antibody 2.59 (antibody, V domains shown)
VH: QSGPRLVKPSQTLSLTCTVSGGSISSDGYYWSWIRQHPGKGLEWIGYIYYSGSTFYNPSLKSRVAISVDTSKNQFSLKLSSVTAADTAVYYCARESPHSSNWYSGFDCWGQGTLVTVSS
VL: TQSPDFQSVTPKEKVTITCRASQSIGSRLHWYQQKPDQSPKLLIKYASQSFSGVPSRFSGSGSGTDFTLTINSLEAEDAATYYCHQSSNLPFTFGPGTKVDIKR
What is called Kd is the free concentration of one partner at which half of the binding sites on the other are occupied at equilibrium, for simple one-to-one binding. The low end stands for higher affinity, the high end for lower affinity. For B1, in test [1], the Kd turned out to be 0.38 nM. Moreover, the “Geo Mean Ratio (relative to negative control)” value in test [2] amounted to 7.7 ratio; in test [3], 15.2 ratio.

B2: anti-TIM-1 monoclonal antibody 2.76 (antibody, V domains shown)
VH: EQSGGGVVQPGRSLRLSCAASGFTFSSYGMYWVRQAPGKGLEWVAVIWYDGSNKYYADSVKGRFTISRDNSKNTLYLQMNSLRAEDTAVYYCARDFYDSSRYHYGMDVWGQGTTVTVSS
VL: TQCPLSLPVTPGEPASISCRSSQSLLDSDDGNTYLDWYLQKPGQSPQLLIYTVSYRASGVPDRFSGSGSGTDFTLKISRVEAEDVGVYYCMQRIEFPITFGQGTRLEIKR
As to B2, binding in test [1] was characterised by a dissociation constant (Kd) of 0.57 nM.

B3: anti-TIM-1 monoclonal antibody 2.16 (antibody, V domains shown)
VH: EQSGGGVVKPGGSLRLSCAASGFTFSNAWMTWVRQAPGKGLEWVGRIKRRTDGGTTDYAAPVKGRFTISRDDSKNTLYLQMNNLKNEDTAVYYCTSVDNDVDYWGQGTLVTVSS
VL: not shown
notes: also called 2.16.1 (subclone)
In test [1], B3 returned a Kd of 0.79 nM. Moreover, the “Geo Mean Ratio (relative to negative control)” value in test [3] turned out to be 7.9 ratio.

B4: anti-TIM-1 monoclonal antibody 2.70 (antibody, V domains shown)
VH: QVQLVESGGGVVQPGRSLRLSCAASGFIFSRYGMHWVRQAPGKGLKWVAVIWYDGSNKLYADSVKGRFTISRDNSKNTLYLQMNSLRAEDTAVYYCARDYYDNSRHHWGFDYWGQGTLVTVSS
VL: DIVMTQTPLSLPVTPGEPASISCRSSRSLLDSDDGNTYLDWYLQKPGQSPQLLIYTLSYRASGVPDRFSGSGSGTDFTLKISRVEAEDVGVYYCMQRVEFPITFGQGTRLEIKR
Molecule B4 gave a Kd in test [1] of 2.71 nM.

B5: anti-TIM-1 monoclonal antibody 2.70.2 (antibody, human IgG4, kappa, V domains shown)
VH: QVQLVESGGGVVQPGRSLRLSCAASGFIFSRYGMHWVRQAPGKGLKWVAVIWYDGSNKLYADSVKGRFTISRDNSKNTLYLQMNSLRAEDTAVYYCARDYYDNSRHHWGFDYWGQGTLVTVSS
VL: DIVMTQTPLSLPVTPGEPASISCRSSRSLLDSDDGNTYLDWYLQKPGQSPQLLIYTLSYRASGVPDRFSGSGSGTDFTLKISRVEAEDVGVYYCMQRVEFPITFGQGTRLEIKR
notes: also called mAb 2.70.2; mAb2.70.2
Consider B5, for which the binding result in test [4] and in test [5] was “no binding” throughout. In addition, the figures for the “Geo Mean Ratio (relative to negative control)” value in test [2] and in test [3] were 8.8 ratio and 19.4 ratio, respectively.

B6: anti-TIM-1 monoclonal antibody 1.37 (antibody, V domains shown)
VH: EVQLVESGGGLVQPGGSLRLSCAASGFTFTNYWMSWVRQAPGKGLEWVANIQQDGSEKYYVDSVRGRFTISRDNAKNSLYLQMNSLRAEDSAVYYCARWDYWGQGTLVTVSS
VL: DIVMTQTPLSSTVILGQPASISCRSSQSLVHSDGNTYLNWLQQRPGQPPRLLIYMISNRFSGVPDRFSGSGAGTDFTLKISRVEAEDVGVYYCMQATESPQTFGQGTKVEIKR
The molecule B6 registered a Kd in test [1] of 2.78 nM.

B7: anti-TIM-1 monoclonal antibody 1.29 (antibody, V domains shown)
VH: QVQLQESGPGLVKPSETLSLTCTVSGGSVSSGGYYWSWIRQPPGKGLEWIGFIYYTGSTNYNPSLKSRVSISVDTSKNQFSLKLSSVTAADAAVYYCARDYDWSFHFDYWGQGTLVTVSS
VL: DIQMTQSPSSLSASIGDRVTITCRASQGIRNDLGWYQQKPGKAPKRLIYAASSLQSGVPSRFSGSGSGTEFTLTISSLQPEDFATYYCLQHNSYPLTFGGGTKVEIKR
notes: also called mAb 1.29
B7 registered a Kd in test [1] of 3.64 nM. In test [3], the “Geo Mean Ratio (relative to negative control)” value is 17.9 ratio.

B8: anti-TIM-1 monoclonal antibody 2.61 (antibody, V domains shown)
VH: QVQLVEAGGGVVQPGRSLRLSCAASGFTFRSYGMHWVRQAPGKGLKWVAVIWYDGSNKYYTDSVKGRFTISRDNSKNTLYLQMNSLRAEDTAVYYCVRDYYDNSRHHWGFDYWGQGTLVTVSS
VL: DIQMTQSPSSRCASVGDRVTITCRASQGIRNDLAWYQQKPGKAPKRLIYAASSLQSGVPSRFSGSRSGTEFTLTISSLQPEDFAAYYCLQHNSYPPSFGQGTKLEIKR
B8: in test [1], the Kd came to 1 nM.
